The record followed here is the supplement of paper PMC12636428.

A value given as a limit tells only on which side of the number the result lay.

The data set relates to Saccharomyces cerevisiae. The data set can be described thus: transcriptional activation domain activity (GFP:mCherry ratio, weighted mean of sorted bins, harmonized to initial dataset scale) (arbitrary fluorescence ratio units); higher = stronger transcriptional activation. Particulars: beta-estradiol 1 µM; induction time 4 h. How it is done:
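53-aa protein tiles (fungal proteins plus yeast TF control tiles) fused C-terminally to a DBD-estrogen-binding domain-mCherry synthetic TF, integrated in S. cerevisiae (URA3 locus) with a GFP reporter. Cells were induced with 1 uM beta-estradiol for 4 h at 30 C, FACS-sorted into 8 bins by GFP:mCherry ratio and barcodes sequenced. Activity is the read-weighted mean bin fluorescence (GFP:mCherry), averaged over barcodes (median 12); tiles under 50 reads were discarded. New active-learning values were harmonized by linear fit onto the scale of the initial (Hummel et al.) dataset. The assay saturates at low and high signal.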

For “AAAAAAAAAAAAAAAAAAAAAAAAAAAQQRRRQQQQQRRGSSAAARRQQQQQR”, the “transcriptional activation domain activity” value was found to be 22600.
With “AAAAAAAAETAADEKPAEEAGEPPAAEPEAAEPAKEEAAPAEEAAAAEAVPAP”, the “transcriptional activation domain activity” value came out at 54300.
Turning to “AAAAAAAASNSYAIPENELLDEDTMNFISSLKNDLSNISNSLPFEYPHEIAEA”, the “transcriptional activation domain activity” value was determined as 123000.
The result for “AAAAAAAEGDGEGKGKEDGEDKEKEGGNGEAEAEAGAEGKKAAAGAAQKESSN” reads 35100; that for “AAAAALRTEETADSAGQLAEAGCRSVDTADTAEGCLEEMAVVVVAVASSVGAM”, 55600; that for “AAAAAPATTTTESAPAPAAEAAKPAEEAKPAATEAAPAADATAAAPAPAPAAA”, less than 6570.
In the case of “AAAAGVPIASDESETEVEEEGSSSADIGQAATTGRGRSPPKQQQQQQSVAAVS” it was 38500; in that of “AAAAKPASGAKTGGKGKGAKSKKSKATVESEDEGEGADGAPAKKKTKKGKTSD”, 44200.
As to “AAAAREKAEAERKEKAEKEERERLEREKREVEAERKKVAAAAARAEKEKAKAA”, the “transcriptional activation domain activity” value is 13400.
For “AAAASSTPCLRRRPAPAPATARSSAARPAGCSCGGRSRRCGGRRTPSPSRRGP”, the “transcriptional activation domain activity” value turned out to be 20300.
In the case of “AAAATGSKRKADDASDEEQEEGDKEGDNNKGEKQGGEPAGKKQKQTAGVKRVV” it was 27500; in that of “AAADAEVDELEDGTADADGAKPKKRKRGGDADGKPKSARKDAPAAAKKKGGAA”, 36500; in that of “AAAGAADEAKTSSSPNGTKEAAVASSGGEKPAAAGVAGAPNSQSQTGAQPTKK”, 28700.
The result for “AAAGAREVKHPAAKKQKKIEGGSETKDEEEKSSSKKRQKSESKSKSKSKSKSK” reads 28300; that for “AAAGNATAEAGAAEGKAKGKGKDAAAAEGAAAAGGAAAAEGKAKGKGKDAAAA”, 46600.
Regarding “AAAGRRGPGKRKGSRTSPGTAGGGGGRGGRGGGGRGGGARGGGAGGEAAGGAT”, the “transcriptional activation domain activity” value was determined as 29900.
The result for “AAAKAAPAIEEEPQEEQPEEPDKAAAPKKRGRKRKSSGVGAATAAAAAVPRGP” reads 9830; that for “AAAKAKDNIKEEDEADELAPVKKTAKKRGPKAQDVDGEGAPKKKPRGRPAKKA”, 17000.
In the case of “AAAKPVATKSSSKAKTPAAASISKSKAKPVAAAARGGGKKRKVASSPAPSVVA” it was 9030.
Turning to “AAAPAAAANDGTTKKKGKGQKATRSPKGKGKSKKKGKGAAAAAAAPAAAKAVS”, the “transcriptional activation domain activity” value is 14600.
In the case of “AAAPAAANDGFHEVHHNRGGRGRGGHQGEGRGGYRGRGGPRGEFRGRGRGRGR” it was 42000; in that of “AAAPAPEPAPKKGRPGRKPAAKSEPEAVEEKTEDAPKKRGRRSTLIPEPVEET”, less than 6570.
In the case of “AAAPDVENEPAGRRKAAAAGVEQGGGHPHMLKGVCGNAGWGDAQAAAGKACKG” it was 26900; in that of “AAAPRAKNAPRGKKQTAAKTAPEPEPEPEAEPAPAPKPRGRQKKTVKASAPEV”, 20800.
The result for “AAARAPHVAPAPPDARPKSKKRKSSSPDDGRAPAKSRRLSPARAAPAKPKHRR” reads 12300; that for “AAASAPAPQNDGFSEVQHSRGGRGRGGHPSGERGGYRGRGRGGPRGDFGGRGR”, 49600; that for “AAATAEGAASSRQPSERERKREREREEERERGKEREREKERKQAAEASTSANE”, 58800.
Consider “AAATATGAAPPGAPGEGPPKVKRGRKPKPKNLPPSDPNASTTATPGTSAPGSQ”, for which the “transcriptional activation domain activity” value turned out to be 32500.
In the case of “AAATTADAKPASSAADKASSSVAAASAGQATASTDSGTAKAEKKKKGKAAAVA” it was 8920.
In the case of “AAAVAAKKPEEKKEETPAEAATEAPKEEAKEEKKEEKAATKSRSQSRKRTSIF” it was less than 6570; in that of “AAAVAVAREHVQKEVVATVTVAKEHVQKEEVVAAVAVAREHAQKEVVATVAVA”, 56000.
In the case of “AAAVEKTEEEKPVAAAAAPAAEKEKAPAAKAKKATTTKKAAAPKKAAAPKAKK” it was 27700; in that of “AADADEDDEDAPKKAPKKPAKRGRKKADDDDEEPEEEAQPAKKKAKGGRKAKK”, 47700; in that of “AADGSPAPRPNAICIHEVDQGIQWKHTNHRTGKAVVVRKRQLVLQQIITVANY”, 44500.
In the case of “AADQVQDTAGQAVNQVGDTAGKALGGLTGGGKKEQGGEEEGGGEQLRLRLELN”, the “transcriptional activation domain activity” value amounted to 35700.
In the case of “AAEDGKKGDKAEVGKRGDKAEVKKVKKVDGEEAGGEKVVVEKKAGAEQKAVKA” it was 17500; in that of “AAEDVEGEGEAKEKKSKKRRAEANGVGEGEEGERKKKKRKEKAVEQTEEEVKP”, 34800.
The result for “AAEEAAVADGECPSKKKRQAELSKQISAKWKGLSPEDRRYWDTLAKEKKREHE” reads 19500; that for “AAEEAVKVAVVVEGAKKRRGRPRKDAVDEEGTVLGALADATNTQTATAAPVPM”, 24300; that for “AAEEEDEEAKPLPAKKKRSSKKRKAEDAAEPEEKPAAKKKTAKVSGRGKKAAD”, 16300.
The result for “AAEEEEAEAQAEKEEAEAEEAEAEEELEEAQAEEAEAEEAEAEEAEAVRGAMG” reads less than 6570; that for “AAEEKEGYEDEAEEGEDEEEDEEDPEVRRKEELRARMAKMSAGMGGMGGMGMM”, 10100.
As for “AAEGGDSVAKSSPAKPKQSKQSKKRPRDEDGEGAGEAPASKKQPKAKAKAAKA”, the “transcriptional activation domain activity” value was 26100.
As to “AAEKPAEEQPAETLVVEAKEVEEPKAAAKKGKKKAAKKEAEKVVEEQAVETPA”, the “transcriptional activation domain activity” value is 32500.
In the case of “AAEPAPEPVVEKAPAPKKRAGRQPKAETVVEDAPAPKKRGRGARKSEPAAVAE” it was 21000; in that of “AAERRQQGHRAKENEKRRQEEARRGRKERGAGGGKAKAGRKPAGQPRRRRSRE”, 32900.
The result for “AAEVKQAKEETGEKAQKKEKKEKEKKAEAAEGGKKKEKAAGGGKPAAEEAAGE” reads 24500; that for “AAFFFALLWVVFRSSWPSPLFFFLFFFVGLVLLAFLAFGFPFARFLLPLGVFF”, 26000; that for “AAFSGEGDPWPGVAREIDENGENVGLAASRPAPAFLRVLTAVRVRVRIAFAFV”, 54500.
The result for “AAGAAAPAKAAPAGARKARKGAAAAAPAAAPAAGAAPAQGAAAKKGGRLGGAA” reads 30000; that for “AAGAAGAKASKAPKASKAAKAPKASGAAGAKKGGKKAGKGAASSGAAKAPAAT”, 42400; that for “AAGASTTAQVSKKRQVLLRVNNRTYTRIDCIGRGGSGKVYRVSAESGKMLALK”, 62100.
Regarding “AAGETVHFSARAEVLTSKFGRTSKLSPRFIILTEKAVYILLAAARDGRVVVQL”, the “transcriptional activation domain activity” value worked out at 37700.
In the case of “AAGGGGTGAGGAAGAARAAGHGAVGAAAGDGEQREGRAGRGRGHGRGVEGGRG” it was 59200.
Consider “AAGGSSSQAQITVNPGAKAEEEAEEDEGQLVQRMARRGIKSHVFVGSEIVQIP”, for which the “transcriptional activation domain activity” value was 33900.
The result for “AAGKAGKGGKGAGKAGKGAGKGKGGKRGGKGGKGAKAAGKGAAKAASQAAAAS” reads 37100.
In the case of “AAGPGNNDLDDTDTDNQQFFLSDMNLNGSSVFENVFDDDDDDDDVETHSIVHS”, the “transcriptional activation domain activity” value was 28900.
As to “AAINGSANGKRRRTKEDGGEKADGRAGPKSENVVLQKTIEHIHGLLQHKSVLL”, the “transcriptional activation domain activity” value was 45900.
As to “AAKALCKLQEAILKTYGMPGLLCMLRGISFHIYAVLTCTMLHLVAITCPDPDI”, the “transcriptional activation domain activity” value was 32900.
For the sequence “AAKDRRHLRSRSQATYLILLGIMLWGLLRWRKTNVFKLWHLLVRQGACWILIV”, the “transcriptional activation domain activity” value turned out to be 60400.
Take “AAKGKAAAGGGTKKKGTAGAEAETPEMATPAPEGAPNAPAKKRAKKATAAAAA”: the “transcriptional activation domain activity” value turned out to be 36400.
In the case of “AAKMAREYKKGERQAGRMRTEKGERGEEDGREREGTRRRREKEKEKNKEKGPR” it was 46000; in that of “AAKPAPKKAPGRPKKAAAEPEPASEPTESEEPKPKKAGGRPRKAAAPAAEPEA”, 40700; in that of “AAKPKDRIKYWNIVPGDRVRITGDKEGKLLEVAKINKLSNRVYLKGATTKAGS”, 44400.
The result for “AAKRKTRADEHEEDEEEEHREATVVRRARGRPRKVEAPEPEAPVRATRGRATK” reads 17000.
Regarding “AAKSKGRTSRASRTRGEKSDSKEEKKRTSSLKEKRSSSEEKKSRSSKSAGKEK”, the “transcriptional activation domain activity” value turned out to be 38300.
In the case of “AALALKFRYRIDGSTEDRWISVSRMLNKIAHWYLPQKYTFLHPSGIVSYAVIR” it was 66900.
On to “AALFLSVQHKLFYLVMSLARFNLYFLSYSFLLLHAKRRWHWYAEIASIMLFWS”, for which the “transcriptional activation domain activity” value stood at 50400.
In the case of “AALLHLIILISFGNLLLVPKCCLLVHTLRFWCRVFFLNPSLVLSFALSTFIYS” it was 58900; in that of “AAMLLQRVDPNILGNAANVDKTLIHSMAWCLAKIMLFFDPSYITGLLQAYFKL”, 46300; in that of “AANFHDTHGFGSMPQHLKKKPKAEGEGAGKAEEVKAEVSATAEAEESATAKAE”, 34800.
